This assay deals with CaCl2-washed photosystem II complex (T. elongatus | T. elongatus (endogenous)) (UniProt Q8DIF8). The assay can be described thus: native gel or EMSA.

“CaCl2-washed photosystem II complex (from UniProt Q8DIF8 1-461; P0A444 1-344; Q8DIQ1 1-510)” came in with a stoichiometry N of 2.

The record behind these values is paper doi:10.1101/2021.06.28.450235.
